Measurements from publication PMC4186791.

Biological target: UbxIVa Pro4 (Drosophila melanogaster)
Experiment: two-hybrid; LexA-Ubx variant (pLexA) and B42-partner (pB42) co-transformed into S. cerevisiae EGY48 carrying p8op-LacZ; blue/white colonies on X-gal and liquid β-galactosidase (ONPG) assay after galactose induction at 30°C, reported in Miller units

B1: Cap-binding protein 1 (natural protein)
chain: MSRRRAHDTEDEGYDHRRNKRRRVSENQEIEDRLESLILRVGERSTSSVESNLEGLVSVLEADLGTFRLKILRILSDCAVRMPEKCTVYTTLVGLLNAKNYKFGGEFVDHMVKTFKESLKMCRWDAARYSLRFLADLVNCHVISATSLLQLLDTMIDVSNEDTVPQVRRDWFVFAVLSTLPWVGRDLYEKKESALESLLLRIEVYLNKRSKKHHNALRVWSSDAPHPQEEYLDCLWAQIRKLRQDNWAEKHIPRPYLVFDSILCEALQHNLPTIVPPPHHDNFEYPMPWVVYRMFDYTDCPDGPNLPGAHSIERFLIEEHLHHIIETYHHERKDCAAQLLSFPYKHKIPLEYCIVEVVFAELFHMPTPRYLDICYGSILIELCKLQPATLPQVLAQATEILFMRIDSMNTSCFDRFVNWFSYHLSNFKFTWSWDEWDSCLLLDGEHPRPKFIQEVLQKCLRLSYHQRITEMMPTTYAKLIPLTPVPNYKYANEEAANLPGTTVAHQLVVAIRQKCTPEEVVNILKDIPNSGYSGEEMSDGSFNALKIDVFVQTLLNLGSKSFSHSFAAISKFHSVFRALAETEEAQICILHNIFELWSSHQQMMVVLIDKLLKLQIVDCSAVATWIFSKEMTGEFTKLYLWEILHLTIKKMNKHVIKLNTELSEAKEKLAKADSSSSDSEDDSSHKRKKPITHADKPSEEVVERMEEKLEAANVNQKRLFLIVFQRFIMILSEHLLRSDTDGRDPDTDWYRWTIGRLQQVFLMHHEQVQKYSSTLETLLFTSDLDTHILEVFQQFVALRA
- percent of binding lost relative to UbxIb Pro4: 85%

B2: Armadillo (natural protein)
chain: MSYMPAQNRTMSHNNQYNPPDLPPMVSAKEQTLMWQQNSYLGDSGIHSGAVTQVPSLSGKEDEEMEGDPLMFDLDTGFPQNFTQDQVDDMNQQLSQTRSQRVRAAMFPETLEEGIEIPSTQFDPQQPTAVQRLSEPSQMLKHAVVNLINYQDDAELATRAIPELIKLLNDEDQVVVSQAAMMVHQLSKKEASRHAIMNSPQMVAALVRAISNSNDLESTKAAVGTLHNLSHHRQGLLAIFKSGGIPALVKLLSSPVESVLFYAITTLHNLLLHQDGSKMAVRLAGGLQKMVTLLQRNNVKFLAIVTDCLQILAYGNQESKLIILASGGPNELVRIMRSYDYEKLLWTTSRVLKVLSVCSSNKPAIVDAGGMQALAMHLGNMSPRLVQNCLWTLRNLSDAATKVEGLEALLQSLVQVLGSTDVNVVTCAAGILSNLTCNNQRNKATVCQVGGVDALVRTIINAGDREEITEPAVCALRHLTSRHVDSELAQNAVRLNYGLSVIVKLLHPPSRWPLIKAVIGLIRNLALCPANHAPLREHGAIHHLVRLLMRAFQDTERQRSSIATTGSQQPSAYADGVRMEEIVEGTVGALHILARESHNRALIRQQSVIPIFVRLLFNEIENIQRVAAGVLCELAADKEGAEIIEQEGATGPLTDLLHSRNEGVATYAAAVLFRMSEDKPQDYKKRLSIELTNSLLREDNNIWANADLGMGPDLQDMLGPEEAYEGLYGQGPPSVHSSHGGRAFHQQGYDTLPIDSMQGLEISSPVGGGGAGGAPGNGGAVGGASGGGGNIGAIPPSGAPTSPYSMDMDVGEIDAGALNFDLDAMPTPPNDNNNLAAWYDTDC
- percent of binding lost relative to UbxIb Pro4: 60%
